Results taken from the supplement of paper PMC9112550, “Optimization of the antimicrobial peptide Bac7 by deep mutational scanning” (BMC Biology, 2022).

These sequences were tested on Escherichia coli TOP10 (assay: shrunken log2 fold change of peptide-encoding DNA abundance (4.5 h post-induction vs induction); higher = less antimicrobial activity (less host growth inhibition)). Settings: time post-induction: 4.5 h; library: site-saturation at positions 5, 18, 19, 20.
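Note: peptides expressed intracellularly from a pBAD plasmid library in pooled LB shake-flask culture, induced with 0.3% L-arabinose, DNA abundance read by NGS, three biological replicates, DESeq2 with apeglm shrinkage.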

Point of comparison: RRIRHRPPRLPRPRPRPMPNPRP, “shrunken log2 fold change” value -0.0341. Against it:
- RRIRDRPPRLPRPRPRPISWPRP — within 0.2 log units, 0.0803
- RRIRQRPPRLPRPRPRPPPPPRP — higher, 0.822
- RRIRCRPPRLPRPRPRPVNSPRP — lower, -0.418
- RRIRQRPPRLPRPRPRPCMGPRP — within 0.2 log units, -0.124
- RRIRIRPPRLPRPRPRPGETPRP — within 0.2 log units, 0.0122
- RRIRARPPRLPRPRPRPKNPPRP — higher, 0.196
- RRIRFRPPRLPRPRPRPSQNPRP — within 0.2 log units, -0.22
- RRIRKRPPRLPRPRPRPTESPRP — within 0.2 log units, 0.00281
- RRIRDRPPRLPRPRPRPTVRPRP — within 0.2 log units, 0.0184
- RRIRYRPPRLPRPRPRPMLVPRP — within 0.2 log units, -0.176
- RRIRLRPPRLPRPRPRPAWSPRP — within 0.2 log units, 0.103
- RRIRYRPPRLPRPRPRPVNGPRP — lower, -0.338
- RRIRARPPRLPRPRPRPIKEPRP — within 0.2 log units, -0.0357
- RRIRYRPPRLPRPRPRPAPWPRP — within 0.2 log units, -0.0627
- RRIRGRPPRLPRPRPRPKAYPRP — within 0.2 log units, 0.12
- RRIRHRPPRLPRPRPRPKVWPRP — higher, 0.331
- RRIRNRPPRLPRPRPRPMEQPRP — within 0.2 log units, -0.208
- RRIRHRPPRLPRPRPRPSVKPRP — lower, -0.364
- RRIRNRPPRLPRPRPRPTRFPRP — higher, 0.3
- RRIRHRPPRLPRPRPRPNPAPRP — within 0.2 log units, -0.0505
- RRIRCRPPRLPRPRPRPRDSPRP — within 0.2 log units, -0.0484
- RRIRMRPPRLPRPRPRPDRLPRP — higher, 0.55
- RRIRHRPPRLPRPRPRPWLHPRP — within 0.2 log units, -0.00987
- RRIRNRPPRLPRPRPRPIEPPRP — within 0.2 log units, -0.00208
- RRIRLRPPRLPRPRPRPKQMPRP — within 0.2 log units, 0.0542
- RRIRCRPPRLPRPRPRPSLCPRP — lower, -0.49
- RRIRARPPRLPRPRPRPVTWPRP — higher, 0.291
- RRIRWRPPRLPRPRPRPKLSPRP — within 0.2 log units, -0.0389
- RRIRGRPPRLPRPRPRPIMDPRP — within 0.2 log units, 0.0794
- RRIRHRPPRLPRPRPRPVRIPRP — within 0.2 log units, 0.0159
- RRIRTRPPRLPRPRPRPRIYPRP — lower, -0.304
- RRIRGRPPRLPRPRPRPTHVPRP — higher, 0.483
- RRIRGRPPRLPRPRPRPNRMPRP — within 0.2 log units, -0.00965
- RRIRTRPPRLPRPRPRPHQLPRP — lower, -0.313
- RRIRWRPPRLPRPRPRPVFDPRP — within 0.2 log units, 0.138
- RRIRQRPPRLPRPRPRPNFDPRP — lower, -0.347
- RRIRNRPPRLPRPRPRPAGWPRP — higher, 0.558
- RRIRSRPPRLPRPRPRPSSYPRP — lower, -0.344
- RRIRLRPPRLPRPRPRPGKEPRP — within 0.2 log units, 0.0418
- RRIRKRPPRLPRPRPRPETNPRP — higher, 2.35
- RRIRNRPPRLPRPRPRPHGNPRP — within 0.2 log units, -0.189
- RRIRKRPPRLPRPRPRPCADPRP — within 0.2 log units, 0.006
- RRIRDRPPRLPRPRPRPCPCPRP — lower, -0.478
- RRIRKRPPRLPRPRPRPYKLPRP — lower, -0.281
- RRIRDRPPRLPRPRPRPQWHPRP — lower, -0.292
- RRIRERPPRLPRPRPRPQKGPRP — within 0.2 log units, -0.213
- RRIRNRPPRLPRPRPRPKPQPRP — higher, 0.41
- RRIRRRPPRLPRPRPRPICCPRP — higher, 0.213
- RRIRDRPPRLPRPRPRPKVQPRP — within 0.2 log units, 0.116
- RRIRMRPPRLPRPRPRPMWNPRP — within 0.2 log units, 0.0246
- RRIRFRPPRLPRPRPRPGYAPRP — within 0.2 log units, -0.0137
- RRIRIRPPRLPRPRPRPTQIPRP — higher, 0.245
- RRIRQRPPRLPRPRPRPVAQPRP — higher, 0.24
- RRIRWRPPRLPRPRPRPKLKPRP — higher, 0.507
- RRIRVRPPRLPRPRPRPHTAPRP — within 0.2 log units, -0.00836
- RRIRNRPPRLPRPRPRPNFFPRP — within 0.2 log units, 0.0771
- RRIRMRPPRLPRPRPRPIAEPRP — higher, 3.46
- RRIRERPPRLPRPRPRPYMWPRP — lower, -0.452
- RRIRHRPPRLPRPRPRPPLGPRP — higher, 0.25
- RRIRIRPPRLPRPRPRPICHPRP — lower, -0.326
- RRIRHRPPRLPRPRPRPAECPRP — lower, -0.696
- RRIRSRPPRLPRPRPRPTFPPRP — within 0.2 log units, 0.0566
- RRIRMRPPRLPRPRPRPLKYPRP — within 0.2 log units, -0.0456
- RRIRPRPPRLPRPRPRPCNPPRP — within 0.2 log units, -0.0662
- RRIRERPPRLPRPRPRPVFTPRP — lower, -0.541
- RRIRRRPPRLPRPRPRPAAYPRP — higher, 0.585
- RRIRLRPPRLPRPRPRPSCAPRP — within 0.2 log units, -0.00959
- RRIRTRPPRLPRPRPRPCSVPRP — within 0.2 log units, 0.0123
- RRIRPRPPRLPRPRPRPKKYPRP — lower, -0.555
- RRIRLRPPRLPRPRPRPYRQPRP — within 0.2 log units, -0.0238
- RRIRARPPRLPRPRPRPWEHPRP — within 0.2 log units, -0.0255
- RRIRVRPPRLPRPRPRPISWPRP — higher, 0.18
- RRIRTRPPRLPRPRPRPNVEPRP — within 0.2 log units, -0.00865
- RRIRPRPPRLPRPRPRPYGWPRP — lower, -0.248
